How the values were obtained:
HDAC3 = assay: GST pull-down of GST-HDAC3 and Flag-sLZIP in 293T cells; assay type: binding
Protocol: 293T cells were obtained and washed with cold PBS. The cells were re-suspended in an IP lysis buffer [25 mM of Tris-HCl (pH 7.4), 150 mM of NaCl, 1 mM of EDTA, 1% NP-40 and 5% glycerol, and a protease inhibitor]. A suspension was centrifuged at 16,000×g for 20 minutes at 4° C. Supernatants were collected and incubated with 0.5 μg of appropriate antibodies and 25 μl of protein A/G-agarose or a GST Sepharose 4B bead for 24 hours at 4° C. A protein complex was centrifuged at 1,000×g with a cold IP lysis buffer for 1 minute and washed five times. The final pellet was re-suspended in 50 μl of an SDS-sample buffer containing 5% β-mercaptoethanol and heated for 10 minutes at 100° C. […] Co-precipitated proteins were detected according to western blotting using specific antibodies.
For this purpose, 293T cells were transiently transfected with PPARγ2 (0.5 μg), (3-galactosidase (0.1 μg), FABP4-Luc reporter genes (0.2 μg) and sLZIP (0.1 μg). After the transfection, the cells were stimulated with or without 10 nM of RZD and 10 nM of TSA (FIG. 4A). A promoter activity was measured according to luciferase analysis. In the 293T cells, FABP4-Luc reporter genes, sLZIP, PPAR, β-galactosidase, and 100 nM of si-RNAs and HDAC1, 2, 3 and 8 for a control group were expressed. After the transfection, the cells were stimulated with or without 10 nM of RZD, and a promoter activity was measured (FIG. 4B). […]

NCoR1 = assay: Immunoprecipitation with anti-NCoR1 antibodies in 293T cells expressing Flag-sLZIP; assay type: binding; conditions: 10 nM RZD for 24 hours
Protocol: 293T cells were obtained and washed with cold PBS. The cells were re-suspended in an IP lysis buffer [25 mM of Tris-HCl (pH 7.4), 150 mM of NaCl, 1 mM of EDTA, 1% NP-40 and 5% glycerol, and a protease inhibitor]. A suspension was centrifuged at 16,000×g for 20 minutes at 4° C. Supernatants were collected and incubated with 0.5 μg of appropriate antibodies and 25 μl of protein A/G-agarose or a GST Sepharose 4B bead for 24 hours at 4° C. A protein complex was centrifuged at 1,000×g with a cold IP lysis buffer for 1 minute and washed five times. The final pellet was re-suspended in 50 μl of an SDS-sample buffer containing 5% β-mercaptoethanol and heated for 10 minutes at 100° C. A protein sample was isolated in SDS-PAGE (8 to 10%) and transferred to nitrocellulose membranes. Co-precipitated proteins were detected according to western blotting using specific antibodies.
For this purpose, 293T cells were transfected with GST-PPARγ2 and Flag-sLZIP and were treated or not treated with 10 nM of RZD for 24 hours. […] A protein complex was analyzed in SDS-PAGE, and immunoblotted with anti-GST and anti-Flag antibodies. […] The cell lysates were GST pull-down analyzed (FIG. 5C). […] The cell lysates were GST pull-down analyzed (FIG. 5D). […] A protein complex was analyzed in SDS-PAGE, and then immunoblotted with anti-NCoR1 and anti-Flag antibodies (FIG. 5E). […]

B1: sLZIP: human small leucine-zipper protein, isoform of LZIP, 354 amino acids, no transmembrane domain; GenBank FJ263669, SEQ ID NO: 1 (protein, listed as Homo sapiens)
chain: MELELDAGDQDLLAFLLEESGDLGTAPDEAVRAPLDWALPLSEVPSDWEVDDLLCSLLSPPASLNILSSSNPCLVHHDHTYSLPRETVSMDLESESCRKEGTQMTPQHMEELAEQEIARLVLTDEEKSLLEKEGLILPETLPLTKTEEQILKRVRRKIRNKRSAQESRRKKKVYVGGLESRVLKYTAQNMELQNKVQLLEEQNLSLLDQLRKLQAMVIEISNKTSSSSMYSSDTRGSLPAEHGVLSRQLRALPSEDPYQLELPALQSEVPKDSTHQWLDGSDCVLQAPGNTSCLLHYMPQAPSAEPPLEWPFPDLFSEPLCRGPILPLQANLTRKGGWLPTGSPSVILQDRYSG
interaction with HDAC3 (GST pull-down) (HDAC3; 10 nM RZD for 24 hours): HDAC3 was remained as being interacted with sLZIP
interaction with HDAC3 (GST pull-down) (HDAC3; no RZD): interacted with HDAC3 in a PPARγ2 corepressor complex
interaction with NCoR1 (immunoprecipitation) (NCoR1): NCoR1 was slightly dissociated from sLZIP
